Measurements reported in PMC3781208 (Chemistry & biology, 2013).
Positions of bridges follow the written chain, without caps; N, C: chain ends. Non-standard residues stand in square brackets, D forms with d. Residues, ends and D or L forms follow the SMILES beside them. *: point of attachment. FITC = O=C1OC2(c3ccc(O)cc3Oc3cc(O)ccc32)c2ccc(NC(=S)*)cc21; S5 = C=CCCC[C@](C)(N)C(=O)O; Nle = CCCC[C@H](N)C(=O)O; βAla = NCCC(=O)O

What was measured:
FITC-PUMA SAHBF1 = FITC-PUMA SAHBF1 (UniProt Q9BXH1); experiment: fluorescence polarisation
FITC-PUMA SAHBF1, sequence (Q9BXH1 131-153): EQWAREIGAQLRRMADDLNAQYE

[1] = target: FITC-PUMA BH3 (aa 131–153) (UniProt Q9BXH1); experiment: fluorescence polarisation
BAXΔC = BAXΔC (Homo sapiens, UniProt Q07812); experiment: Fluorescence polarization binding assay, BAXΔC; conditions: ratio of FP KDs
BAXΔC, sequence (Q07812 whole entry, stated change not applied): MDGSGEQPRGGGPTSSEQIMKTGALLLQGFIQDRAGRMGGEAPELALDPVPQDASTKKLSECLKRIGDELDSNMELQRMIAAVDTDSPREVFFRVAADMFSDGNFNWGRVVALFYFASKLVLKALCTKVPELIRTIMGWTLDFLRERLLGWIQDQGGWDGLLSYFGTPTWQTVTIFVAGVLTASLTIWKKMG

Compound | Kd (FITC-PUMA SAHBF1) [nM] | Kd [1] [nM] | preference for BAXΔC over BAX A112C/V177C (BAXΔC) [fold]
BAX A112C/V177C (from UniProt Q07812 1-192) (natural protein) | 90 | – | –
BAXΔC (domain or fragment) | 70 | 306 | –
CCCC[C@@H]1NC(=O)[C@@](C)(NC(=O)[C@H](CCCNC(=N)N)NC(=O)[C@H](CC(C)C)NC(=O)[C@H](CCC(N)=O)NC(=O)[C@H](C)NC(=O)CNC(=O)[C@@H](NC(=O)[C@H](CCC(=O)O)NC(=O)[C@H](CCCNC(=N)N)NC(=O)[C@H](C)NC(=O)[C@H](Cc2c[nH]c3ccccc23)NC(=O)[C@H](CCC(N)=O)NC(=O)[C@H](CCC(=O)O)NC(=O)CCNC(=S)Nc2ccc3c(c2)C(=O)OC32c3ccc(O)cc3Oc3cc(O)ccc32)[C@@H](C)CC)CCCC=CCCC[C@@](C)(C(=O)N[C@@H](CC(C)C)C(=O)N[C@@H](CC(N)=O)C(=O)N[C@@H](C)C(=O)N[C@@H](CCC(N)=O)C(=O)N[C@@H](Cc2ccc(O)cc2)C(=O)N[C@@H](CCC(=O)O)C(N)=O)NC(=O)[C@H](CC(=O)O)NC(=O)[C@H](C)NC1=O [FITC-PUMA SAHBA1] ({FITC-βAla}-EQWAREIGAQLR[S5][Nle]AD[S5]LNAQYE-NH2; staple 13-17; N-terminus and C-terminus assumed) | – | – | 3
